According to patent US20260176352A1 (BIRD ROCK BIO, published 2026):

B1: PA2LR3-P3B10 (chimeric) (antibody, V domains shown)
VH: EVQLQQSGAELVRPGSSVKISCKASGYAFSYYWMNWVKQRPGQGLEWIGQIYPGDGDTNYNGKFKGKATLTADKSSSTAYMQLSSLTSEDSAVYFCARSHGNYFPYWGQGTLVTVSA
VL: DIVITQSPAIVSASLGERVTMTCTASSSVSSSYLHWYQQKPGSSPKLWIYSTSNLASGVPARFSGSGSGTSYSLTISSMEAEDAATYYCQQWSSYPLTFGAGTKLEIKR
B2: PA2LR3-P4C6 (chimeric) (antibody, V domains shown)
VH: EVQLQQSGAELVRPGSSVKISCKASGYAFSYYWMNWVKQRPGQGLEWIGQIYPGDGDTNYNGKFKGKATLTADKSSSTAYMQLSSLTSEDSAVYFCARSHGNYFPYWGQGTLVTVSA
VL: DIVITQSPAIVSASLGERVTMTCTASSSVSSSYLHWYQQKPGSSPKLWIYSTSNLASGVPARFSGSGSGTSYSLTISSMEAEDAATYYCQQWSSYPLTFGAGTKLEIKR
B3: PA2LR3-P1G6 (chimeric) (antibody, V domains shown)
VH: EVQLQQSGAELVRPGSSVKISCKASGYAFSYYWMNWVKQRPGQGLEWIGQIYPGDGDTNYNGKFKGKATLTVDKSSSTAYMQLSSLTSEDSAVYFCARSHGNYFAYWGQGTLVTVSA
VL: DIVLSQSPAIMSASLGERVTMTCTASSSVSSSYLHWYQQKPGSSPKLWIYSTSNLASGVPARFSGSGSGTSYSLTISRMEAEDAATYYCQQWSSYPLTFGAGTKLELKR
B4: PA2LR3-P3B8 (chimeric) (antibody, V domains shown)
VH: EVQLQQSGAELVRPGSSVKISCKASGFAFSNYWMNWVKQRPGQGLEWIGQIYPGDGDTNFNGKFKGRAILTADISSNTAYMQLSSLTSEDSAVYFCARSHGNYFPYWGQGTLVTVSA
VL: DIVMTQSPAIMSASLGERVTMTCTASSSVSSSYLHWYQQKPGSSPKLWIYGTSNLASGVPVRFSGSGSGTSYSLTISSMEAEDAATYYCQQWSSYPLTFGAGTKLELKR
B5: PA2LR3-P4G10 (chimeric) (antibody, V domains shown)
VH: EVQLQQFGAELVRPGSSVKISCKASGYAFSYYWMNWVKQRPGQGLEWIGQIYPGDGDTNYNGKFKGKATLTADKSSSTAYMQLSSLTSEDSAVYFCARSHGNYFAYWGQGTLVTVSA
VL: DIVLTQSPAIMSASLGERVTMTCTASSSVSSSYLHWYQQKPGSSPKLWIYSTSNLASGVPARFSGSGSGTSYSLTISSMEAEDAATYYCQQWSSNPLTFGAGTKLELKR
B6: PA2LR3-P2B8 (chimeric) (antibody, V domains shown)
VH: EVQLQQSGAELVRPGSSVKISCKASGYAFSYYWMNWVKQRPGQGLEWIGQIYPGDGDTNYNGKFKGKATLTADKSSSTAYMQLSSLTSEDSAVYFCARSHGNYFAYWGQGTLVTVSA
VL: DIVMTQSPAIMSASLGERVTMTCTASSSISSSYLHWYQQKPGSSPKLWIYSTSNLASGVPARFSGSGSGTSYSLTISSMEAEDAATYYCHQYHRSPLAFGAGTKLELKR
B7: PA2LR3-P1H4 (chimeric) (antibody, V domains shown)
VH: EVQLQQSGAELVRPGSSVKISCKASGYVFGNYWMNWVKQRPGQGLEWIGQIYPGDGDTNYNGKFKGKATLTADKSSSTAYMQLSSLTSEDSAVYFCARSHGNYFPYWGQGTLVTVSA
VL: QIVLTQSPAIMSASLGERVTMTCTASSSVSSSYLHWYQQKPGSSPKLWIYSTSNLASGVPARFSGSGSGTSYSLTISSMEAEDAATYYCQQWSSYPLTFGAGTKLELKR
B8: PA2LR3-P2E5 (chimeric) (antibody, V domains shown)
VH: EVQLQQSGAELVRPGSSVKISCKASGYAFRDYWMNWVKQRPGQGLEWIGQIYPGDGATNYIGKFKGKATLTADKSSSTAYMQLSSLTSEDSAVYFCARSHGNYFPYWGHGTLVTVSA
VL: QIVLTQSPAIMSASLGERVTMTCTASSSVSSSYLHWYQQKPGSSPKLWIYSTSNLASGVPARFSGSGSGTSYSLTISSMEAEDAATYYCQQWSSYPLTFGAGTKLELKR

Assays:
[1] = target: T1, A138 iCAPS (CB1 with ICL3 native sequence replaced with protein 1 sequence) (human, UniProt P21554 99-414); experiment: ELISA, purified IgG on A138 CB1 iCAPS
T1 construct: The insert stands inside the chain in place of ICL3
Procedure: (§1) Purified IgG was tested for binding to purified CB1 receptor (CB1 Conformation Antigen Presenting System (iCAPS)) by ELISA. Non-biotinylated antigens (e.g. empty iCAPS) were coated directly on Maxisorp plates. The primary antibodies were purified IgGs with 1:3 serial dilutions, incubated on the plate for 1 hour. After 3 rounds of washing with PBST, secondary antibodies HRP goat anti-mouse IgG (Abmart) or HRP goat anti-human IgG (Sigma), depending on the species of the IgGs were added and incubated for another hour. The plates were washed three times with PBST, then developed with TMB (Biopanda). HCl was added to the plates to stop the reaction. Absorbance at 450 nm was read on Emax precision microplate reader (Molecular Devices).

[2] = target: T2, A139 iCAPS (CB1 with ICL3 native sequence replaced with BRIL) (human, UniProt P21554 99-414); experiment: ELISA, purified IgG on A139 CB1 iCAPS
T2 construct: The insert stands inside the chain in place of ICL3
Procedure: as §1

T2 sequence (P21554 whole entry): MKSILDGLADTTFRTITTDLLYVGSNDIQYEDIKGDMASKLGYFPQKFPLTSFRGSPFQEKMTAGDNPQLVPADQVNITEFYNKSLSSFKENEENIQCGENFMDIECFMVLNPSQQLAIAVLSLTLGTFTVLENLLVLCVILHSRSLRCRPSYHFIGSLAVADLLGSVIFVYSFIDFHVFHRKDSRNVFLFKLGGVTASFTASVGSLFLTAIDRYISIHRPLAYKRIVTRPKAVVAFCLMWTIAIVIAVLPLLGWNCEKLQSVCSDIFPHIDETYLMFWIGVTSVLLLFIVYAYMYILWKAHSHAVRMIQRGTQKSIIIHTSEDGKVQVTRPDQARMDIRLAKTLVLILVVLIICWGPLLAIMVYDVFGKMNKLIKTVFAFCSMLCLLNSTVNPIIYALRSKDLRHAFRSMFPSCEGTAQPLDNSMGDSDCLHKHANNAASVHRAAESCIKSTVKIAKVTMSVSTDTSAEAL
T1 sequence (P21554 whole entry): as above

Row | Binder | EC50 [1] | EC50 [2]
1 | B1 | 1.4 nM | 0.78 nM
2 | B2 | 0.4 nM | 0.4 nM
3 | B3 | 81 nM | 35 nM
4 | B4 | 71 nM | –
5 | B5 | 1.19 nM | 1.35 nM
6 | B6 | 6.7 nM | 1.8 nM
7 | B7 | 21 nM | 33.5 nM
8 | B8 | 10 nM | 3.2 nM
